The Immune Epitope Database (IEDB)

What was measured:
[1] = target: HLA-A*11:01; test: IEDB peptide-MHC binding, purified MHC/competitive/fluorescence; ≥ and ≤ were set here for values at or beyond the usual limits of such assays
[2] = target: HLA-A*01:01; test: as above
[3] = target: HLA-A*03:01; test: as above
[4] = target: HLA-B*46:01; test: IEDB peptide-MHC binding, purified MHC/competitive/fluorescence; filed as Kd, often an IC50 or EC50 that approximates it; ≥ and ≤ were set here for values at or beyond the usual limits of such assays
[5] = target: HLA-A*02:01; test: IEDB peptide-MHC binding, purified MHC/direct/fluorescence; filed as Kd, often an IC50 or EC50 that approximates it; ≥ and ≤ were set here for values at or beyond the usual limits of such assays
[6] = target: HLA-A*11:01; test: as above
[7] = target: HLA-C*14:02; test: as above
[8] = target: HLA-A*31:01; test: as above
[9] = target: HLA-B*15:01; test: as above
[10] = target: HLA-B*27:05; test: as above
[11] = target: HLA-B*40:01; test: as above
[12] = target: HLA-B*58:01; test: as above
[13] = target: HLA-A*03:01; test: as above
[14] = target: HLA-A*02:01; test: IEDB peptide-MHC binding, purified MHC/competitive/fluorescence; ≥ and ≤ were set here for values at or beyond the usual limits of such assays
[15] = target: HLA-B*07:02; test: as above
[16] = target: HLA-A*30:01; test: IEDB peptide-MHC binding, purified MHC/direct/fluorescence; filed as Kd, often an IC50 or EC50 that approximates it; ≥ and ≤ were set here for values at or beyond the usual limits of such assays
[17] = target: HLA-A*26:01; test: as above
[18] = target: HLA-B*07:02; test: as above
[19] = target: HLA-B*08:01; test: as above
[20] = target: HLA-A*24:03; test: as above
[21] = target: HLA-A*69:01; test: as above
[22] = target: HLA-A*01:01; test: as above
[23] = target: HLA-A*02:01; test: IEDB peptide-MHC binding, purified MHC/competitive/fluorescence; filed as Kd, often an IC50 or EC50 that approximates it; ≥ and ≤ were set here for values at or beyond the usual limits of such assays
[24] = target: HLA-C*15:02; test: IEDB peptide-MHC binding, purified MHC/direct/fluorescence; filed as Kd, often an IC50 or EC50 that approximates it; ≥ and ≤ were set here for values at or beyond the usual limits of such assays; conditions: source organism: Cytophaga hutchinsonii ATCC 33406
[25] = target: HLA-B*57:01; test: IEDB peptide-MHC binding, purified MHC/competitive/fluorescence; filed as Kd, often an IC50 or EC50 that approximates it; ≥ and ≤ were set here for values at or beyond the usual limits of such assays; conditions: source organism: Orthohantavirus sinnombreense
[26] = target: HLA-A*26:01; test: as above; conditions: source organism: Orthohantavirus sinnombreense
[27] = target: HLA-B*18:01; test: as above; conditions: source organism: Orthohantavirus sinnombreense
[28] = target: HLA-B*15:01; test: as above; conditions: source organism: Orthohantavirus sinnombreense
[29] = target: HLA-B*27:05; test: as above; conditions: source organism: Orthohantavirus sinnombreense
[30] = target: HLA-B*15:17; test: as above; conditions: source organism: Orthohantavirus sinnombreense
[31] = target: HLA-B*39:01; test: as above; conditions: source organism: Orthohantavirus sinnombreense
[32] = target: HLA-B*51:01; test: as above; conditions: source organism: Orthohantavirus sinnombreense
[33] = target: HLA-C*07:02; test: IEDB peptide-MHC binding, purified MHC/direct/fluorescence; filed as Kd, often an IC50 or EC50 that approximates it; ≥ and ≤ were set here for values at or beyond the usual limits of such assays
[34] = target: HLA-A*02:19; test: as above; conditions: source organism: Limestone Canyon virus
[35] = target: HLA-A*02:16; test: as above; conditions: source organism: Limestone Canyon virus
[36] = target: HLA-A*02:03; test: as above; conditions: source organism: Limestone Canyon virus
[37] = target: HLA-A*02:11; test: as above; conditions: source organism: Limestone Canyon virus
[38] = target: HLA-A*02:12; test: as above; conditions: source organism: Limestone Canyon virus
[39] = target: HLA-A*68:02; test: as above; conditions: source organism: Limestone Canyon virus
[40] = target: HLA-C*12:03; test: as above
[41] = target: HLA-C*03:03; test: as above; conditions: source organism: Bacillus mycoides KBAB4
[42] = target: HLA-C*06:02; test: as above
[43] = target: HLA-B*08:02; test: as above; conditions: source organism: dengue virus type 4
[44] = target: HLA-A*24:02; test: IEDB peptide-MHC binding, purified MHC/competitive/fluorescence; ≥ and ≤ were set here for values at or beyond the usual limits of such assays; conditions: source organism: Zaire ebolavirus
[45] = target: HLA-B*15:01; test: as above; conditions: source organism: Zaire ebolavirus
[46] = target: HLA-B*08:01; test: IEDB peptide-MHC binding, purified MHC/competitive/fluorescence; filed as Kd, often an IC50 or EC50 that approximates it; ≥ and ≤ were set here for values at or beyond the usual limits of such assays; conditions: source organism: Bacillus anthracis str. A0488
[47] = source organism: Zaire ebolavirus
[48] = source organism: Giardia lamblia ATCC 50803
[49] = source organism: Vaccinia virus
[50] = source organism: Orthohantavirus sinnombreense
[51] = source organism: Limestone Canyon virus
[52] = source organism: Bacillus mycoides KBAB4
[53] = source organism: Dengue virus 2 Jamaica/1409/1983
[54] = source organism: Pseudomonas aeruginosa
[55] = source organism: Pseudomonas aeruginosa UCBPP-PA14
[56] = source organism: West Nile virus

LSGVNNLEH gave an IC50 [1, 47] of 5.06 µM, an IC50 [2, 47] of no less than 167 µM and an IC50 [3, 47] of 43.5 µM.

KQYNVTQAF showed a Kd ([4]; source organism: SARS-CoV1) of 0.0652 µM, a Kd ([5]; source organism: SARS-CoV1) of no less than 51.3 µM and a Kd ([6]; source organism: SARS-CoV1) of no less than 28.4 µM. The Kd ([7]; source organism: SARS-CoV1) was 0.002 µM, the Kd ([8]; source organism: SARS-CoV1) was 0.449 µM and the Kd ([9]; source organism: SARS-CoV1) was 0.0871 µM. It also gave a Kd ([10]; source organism: SARS-CoV1) of 0.538 µM, a Kd ([11]; source organism: SARS-CoV1) of 5.33 µM and a Kd ([12]; source organism: SARS-CoV1) of 1.01 µM. For the same sequence, the Kd ([13]; source organism: SARS-CoV1) was 6.35 µM.

YTSGKRSNT showed an IC50 [14, 47] of no less than 354 µM and an IC50 [15, 47] of 5.9 µM.

KVGVYKMHK gave a Kd [16, 48] of 0.0152 µM, a Kd [5, 48] of no less than 20 µM and a Kd [6, 48] of 0.0334 µM. For the same sequence, the Kd [17, 48] was no less than 20 µM, the Kd [18, 48] was no less than 20 µM and the Kd [19, 48] was no less than 20 µM. It also gave a Kd [8, 48] of 0.0552 µM, a Kd [20, 48] of no less than 20 µM and a Kd [9, 48] of no less than 20 µM. The Kd [10, 48] was no less than 20 µM, the Kd [21, 48] was no less than 20 µM and the Kd [11, 48] was no less than 20 µM. For the same sequence, the Kd [22, 48] was no less than 20 µM, the Kd [12, 48] was no less than 20 µM and the Kd [13, 48] was 0.163 µM.

Work on AVDRGCLRI yielded an IC50 [14, 49] of 3.51 µM, an IC50 [1, 49] of 11.8 µM and an IC50 [2, 49] of no less than 183 µM. It also gave an IC50 [3, 49] of 16.1 µM.

Work on GLADAFILL yielded a Kd ([23]; source organism: Cytophaga hutchinsonii ATCC 33406) of 0.0006 µM and a Kd [24] of no less than 20 µM.

AYVTWIALM showed a Kd ([7]; source organism: Mus musculus) of 0.027 µM.

YRTLGVFRY gave a Kd [23, 50] of no less than 20 µM, a Kd [25] of no less than 20 µM and a Kd [26] of no less than 20 µM. The Kd [27] was no less than 20 µM, the Kd [28] was no less than 20 µM and the Kd [29] was 0.144 µM. It also gave a Kd [30] of no less than 20 µM, a Kd [4, 50] of no less than 20 µM and a Kd [31] of no less than 20 µM. The Kd [32] was no less than 20 µM, the Kd [33, 50] was 0.048 µM and the Kd [34] was no less than 20 µM. The Kd [20, 51] was no less than 20 µM, the Kd [35] was no less than 20 µM and the Kd [36] was no less than 20 µM. It also gave a Kd [37] of no less than 20 µM, a Kd [38] of no less than 20 µM and a Kd [13, 51] of no less than 20 µM. It also gave a Kd [39] of no less than 20 µM.

For FAFCRITSF, the Kd [40, 52] was no more than 0.001 µM, the Kd [41] was 0.002 µM and the Kd [42, 52] was 1.08 µM.

In the case of IPSSSPTTA, the IC50 ([15]; source organism: Sudan ebolavirus) is reported as 22.1 µM.

Sequence FRKKRLTIM has a Kd [33, 53] of 0.446 µM, a Kd [43] of 4.43 µM and a Kd [42, 53] of 0.018 µM.

RTFSIPLGV gave an IC50 [14, 47] of 0.321 µM, an IC50 [1, 47] of 1.62 µM and an IC50 [15, 47] of no less than 167 µM. The IC50 [44] was 33 µM, the IC50 [45] was no less than 221 µM and the IC50 [3, 47] was 3.46 µM.

In the case of DSDNTQSEH, the IC50 [2, 47] is reported as no less than 84.2 µM.

AANMYIYPL showed a Kd [46] of 1.1 µM and a Kd ([7]; source organism: Bacillus anthracis str. A0488) of 0.057 µM.

For AYGSRFHEW, the Kd [16, 54] was no less than 31.6 µM, the Kd [5, 55] was no less than 20 µM and the Kd [6, 55] was no less than 20 µM. It also gave a Kd [17, 55] of no less than 20 µM, a Kd [18, 55] of no less than 20 µM and a Kd [19, 55] of no less than 20 µM. The Kd [20, 54] was 0.00184 µM, the Kd [10, 55] was no less than 20 µM and the Kd [21, 55] was no less than 20 µM. It also gave a Kd [11, 55] of no less than 20 µM, a Kd [22, 55] of no less than 20 µM and a Kd [12, 54] of 4.7 µM. It also gave a Kd [13, 55] of no less than 20 µM.

In the case of SLYAVTTAV, the Kd [23, 56] is reported as 0.00137 µM and the Kd [40, 56] is reported as 0.027 µM.
